The target of the assay is T1, WT1 (Wilms' tumor protein) peptide on HLA-A*02:01 (human).
T1 peptide: RMFPNAPYL
The experiment in a line: killing.

We go through three molecules from patent US20210340530A1 (INTELLIA THERAPEUTICS, published 2021).

B1: TCR-H (TCR, V domains shown)
Valpha: RKEVEQDPGPFNVPEGATVAFNCTYSNSASQSFFWYRQDCRKEPKLLMSVYSSGNEDGRFTAQLNRASQYISLLIRDSKLSDSATYLCVVKPDPGAGSYQLTFGKGTKLSVIP
Vbeta: NAGVTQTPKFRVLKTGQSMTLLCAQDMNHEYMYWYRQDPGMGLRLIHYSVGEGTTAKGEVPDGYNVSRLKKQNFLLGLESAAPSQTSVYFCASRGYHRLNNEQFFGPGTRLTVL
As for B1, the binding result is on record as “no recognition”.

B2: TCR-F (TCR, V domains shown)
Valpha: AQKITQTQPGMFVQEKEAVTLDCTYDTSDPSYGLFWYKQPSSGEMIFLIYQGSYDQQNATEGRYSLNFQKARKSANLVISASQLGDSAMYFCAISGNTPLVFGKGTRLSVIA
Vbeta: AAGVIQSPRHLIKEKRETATLKCYPIPRHDTVYWYQQGPGQDPQFLISFYEKMQSDKGSIPDRFSAQQFSDYHSELNMSSLELGDSALYFCASSLRGGLEKLFFGSGTQLSVL
On to B2, for which the binding result is “no recognition”.

B3: TCR-G (TCR, V domains shown)
Valpha: DQQVKQNSPSLSVQEGRISILNCDYTNSMFDYFLWYKKYPAEGPTFLISISSIKDKNEDGRFTVFLNKSAKHLSLHIVPSQPGDSAVYFCAARGQGNLIFGKGTKLSVKP
Vbeta: EAGVAQSPRYKIIEKRQSVAFWCNPISGHATLYWYQQILGQGPKLLIQFQNNGVVDDSQLPKDRFSAERLKGVDSTLKIQPAKLEDSAVYLCASSLYRGEQYFGPGTRLTVT
With B3, the binding result is “no recognition”.
